Data reported in the Human Domainome abundance scans (Beltran et al. 2025).

B1: Far upstream element-binding protein 1, residues 184 to 257; numbered along this chain, Q96AE4 (parent)
chain: GNAVQEIMIPASKAGLVIGKGGETIKQLQERAGVKMVMIQDGPQNTGADKPLRITGDPYKVQQAKEMVLELIRD

Variants of: B1
Experiment: abundance fitness (aPCA) (normalised: wild type 0, dead -1); higher = more abundant; growth selection in yeast, the domain comes from the species named
Settings: Homo sapiens

Abundance fitness of substitutions, site by site:
R53: A -0.14, C -0.111, D -0.616, E -0.116, F -0.116, G -0.52, H -0.046, I -0.049, K -0.025, L -0.075, M -0.031, N -0.257, P -0.941, Q -0.009, S -0.148, T 0.008, W -0.205
I54: A -0.807, C -0.504, D -0.829, E -0.883, F -0.175, G -0.913, H -1.03, K -0.878, L -0.069, M -0.074, N -1.22, P -1.08, Q -0.902, R -1.06, S -0.522, T -0.723, V -0.148, W -1.06, Y -1.19
T55: C -0.065, D -0.111, E -0.086, F -0.062, H -0.096, I -0.023, K -0.165, L -0.05, M -0.008, N -0.138, P -0.963, Q -0.022, R -0.152, S -0.053, V -0.047, W -0.115, Y -0.132
G56: A -1.01, C -1.08, D -0.803, E -1.05, F -0.971, H -1.09, I -1.14, K -0.942, L -1.28, N -0.668, P -1.18, Q -0.962, R -1.04, S -1.02, T -1.12, V -1.26, W -1.22, Y -1.25
D57: A -0.017, C -0.093, E 0.019, F -0.285, G -0.218, H -0.022, L -0.119, M -0.138, N -0.083, P -0.018, Q -0.018, T -0.028, V -0.085, W -0.387, Y -0.208
P58: A -0.012, C -0.1, E -0.004, G -0.034, H -0.003, K -0.016, L -0.068, M -0.014, N -0.139, Q -0.079, R 0, S -0.064, T -0.002, V -0.031, W -0.044, Y -0.022
Y59: A 0.011, C -0.003, D 0.057, E 0.009, F -0.003, G 0.029, H 0.044, I 0.046, K 0.036, L 0.026, M -0.043, N 0.047, P 0.015, R 0.032, S 0.006, T 0.047, V -0.024, W 0.021
K60: A -0.036, C 0.002, D -0.164, E -0.187, F -0.277, G -0.086, H -0.01, I -0.653, L -0.065, M -0.118, N 0.029, P -0.179, Q -0.037, R -0.052, T -0.278, V -0.581, W -0.314, Y -0.233
V61: A -0.22, C -0.062, D -0.881, E -0.787, F -0.599, G -0.627, H -0.814, I -0.091, K -0.847, L -0.286, M -0.236, N -0.764, P -0.758, Q -0.528, R -0.672, S -0.427, T -0.154, W -1.17
Q62: A 0.007, C -0.037, E 0.02, F -0.105, G -0.03, H -0.069, K -0.022, M -0.075, N -0.097, R -0.059, T -0.011
